Laboratory results reported in patent publication US20170247448A1 (INTRINSIC LIFESCIENCES, published 2017).

Assays:
[1] = target: T1, Human hepcidin peptide (hepcidin-25) (human); assay: titration affinity ELISA, hepcidin 100 ng/well on Nunc Immobilizer Amino plate; antibody 0 ng/ml (blank)
T1 construct: Synthetic 25 aa peptide; also called hep-25; Hep-25
T1 peptide: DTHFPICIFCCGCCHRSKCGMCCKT
Experimental: (§1) FIGS. 17A-C. Titration affinity ELISA of humanized hits. FIG. 17A: Assay layout. CHO cells were seeded in 6 well plates, transfected with BAP070-01 (recombinant chimera), BAP070-01 humanized hits or vector only using BioAtla's transfection protocol and cultured at 37° C. in DMEM with 10% serum. Supernatants were collected at 48 hours post-transfection. Concentration of IgG in the supernatant was determined using BioAtla's quantitation ELISA. […] Vector only supernatant (column 7) was used as negative control. Bound antibodies were detected with anti-human IgG conjugated with HRP (1:2500). The reactions were stopped with 1 N HCl at 1.5 minutes after TMB was added to the wells and read immediately. OD 450 nm value of the reactions was measure with Molecular Device SPECTRAMAX® Plus. FIG. 17B: OD 450 nm value of the reactions measured with Molecular Device SPECTRAMAX® Plus. FIG. 17C: SOFTMAX® graph of […] data (Brown triangle: BAP070-01 recombinant chimeric antibody). X axis: Antibody concentration in ng/ml. Y axis: OD 450 nm values

[2] = target: T1, Human hepcidin peptide (hepcidin-25); assay: titration affinity ELISA, hepcidin 100 ng/well on Nunc Immobilizer Amino plate, CHO supernatant; antibody 25 ng/ml
Experimental: as §1

[3] = target: T1, Human hepcidin peptide (hepcidin-25); assay: titration affinity ELISA, hepcidin 100 ng/well on Nunc Immobilizer Amino plate, CHO supernatant; antibody 50 ng/ml
Experimental: as §1

[4] = target: T1, Human hepcidin peptide (hepcidin-25); assay: titration affinity ELISA, hepcidin 100 ng/well on Nunc Immobilizer Amino plate, CHO supernatant; antibody 100 ng/ml
Experimental: as §1

[5] = target: T1, Human hepcidin peptide (hepcidin-25); assay: titration affinity ELISA, hepcidin 100 ng/well on Nunc Immobilizer Amino plate, CHO supernatant; antibody 1.56 ng/ml
Experimental: as §1

[6] = target: T1, Human hepcidin peptide (hepcidin-25); assay: titration affinity ELISA, hepcidin 100 ng/well on Nunc Immobilizer Amino plate, CHO supernatant; antibody 12.5 ng/ml
Experimental: as §1

[7] = target: T1, Human hepcidin peptide (hepcidin-25); assay: titration affinity ELISA, hepcidin 100 ng/well on Nunc Immobilizer Amino plate, CHO supernatant; antibody 3.13 ng/ml
Experimental: as §1

[8] = target: T1, Human hepcidin peptide (hepcidin-25); assay: titration affinity ELISA, hepcidin 100 ng/well on Nunc Immobilizer Amino plate, CHO supernatant; antibody 6.25 ng/ml
Experimental: as §1

B1: BAP070-hum01 (antibody, IgG1, V domains shown)
VH: QVQLVQSGAEVKKPGASVKVSCKASGYTFTNYGMNWVRQARGQRLEWIGWINTYTGEPTYADDFKGRLTISKDTSKNQVVLTMTNMDPVDTATYYCTTYATSWYWGQG
VL: DIQMTQSPSSLSASVGDRVTITCRASESVDSYGNSFMHWYQQKPGQAPRLLIYRASNLESGVPSRFSGSGSGTDFTFTISSLQPEDIATYYCQQSNEDLTFG
notes: Expressed as soluble IgG1 in CHO cells, tested as supernatant; The entries stop inside FR4 (...WGQG / ...FG); also called humanized hit 1
[1]
  OD 450 nm: 0.05 OD450
[2]
  OD 450 nm: 2.83 OD450
[3]
  OD 450 nm: 3.02 OD450
[4]
  OD 450 nm: 3.3 OD450
[5]
  OD 450 nm: 0.827 OD450
[6]
  OD 450 nm: 2.26 OD450
[7]
  OD 450 nm: 1.29 OD450
[8]
  OD 450 nm: 2.05 OD450

B2: BAP070-hum03 (antibody, IgG1, V domains shown)
VH: QVQLVQSGAEVKKPGASVKVSCKASGYTFTNYGMNWVRQATGQGLEWMGWINTYTGEPTYADDFKGRFVFSLDTSVSTAYLQICSLKAEDTAVYYCTTYATSWYWGQG
VL: AIQLTQSPSSLSASVGDRVTITCRASESVDSYGNSFMHWYQQKPGQAPRLLIYRASNLESGVPSRFSGSGSGTDFTFTISSLQPEDIATYYCQQSNEDLTFG
notes: Expressed as soluble IgG1 in CHO cells, tested as supernatant; The entries stop inside FR4
[1]
  OD 450 nm: 0.051 OD450
[2]
  OD 450 nm: 2.62 OD450
[3]
  OD 450 nm: 2.93 OD450
[4]
  OD 450 nm: 3.27 OD450
[5]
  OD 450 nm: 0.564 OD450
[6]
  OD 450 nm: 1.95 OD450
[7]
  OD 450 nm: 0.925 OD450
[8]
  OD 450 nm: 1.6 OD450

B3: BAP070-hum05 (antibody, IgG1, V domains shown)
VH: EVQLVQSGAEVKKPGESLRISCKGSGYTFTNYGMNWIRQPPGKGLEWIGWINTYTGEPTYADDFKGRVTISADKSISTAYLQWSSLKASDTAMYYCTTYATSWYWGQG
VL: DIQMTQSPSSLSASVGDRVTITCRASESVDSYGNSFMHWYQQKPGQAPRLLIYRASNLESGVPSRFSGSGSGTDFTFTISSLQPEDIATYYCQQSNEDLTFG
notes: as for B2
[1]
  OD 450 nm: 0.037 OD450
[2]
  OD 450 nm: 2.63 OD450
[3]
  OD 450 nm: 2.85 OD450
[4]
  OD 450 nm: 3.11 OD450
[5]
  OD 450 nm: 0.59 OD450
[6]
  OD 450 nm: 1.94 OD450
[7]
  OD 450 nm: 0.949 OD450
[8]
  OD 450 nm: 1.48 OD450

B4: BAP070-hum04 (antibody, V domains shown)
VH: QVQLVQSGAEVKKPGASVKVSCKASGYTFTNYGMNWVRQARGQRLEWIGWINTYTGEPTYADDFKGRLTISKDTSKNQVVLTMTNMDPVDTATYYCTTYATSWYWGQG
VL: AIQLTQSPSSLSASVGDRVTITCRASESVDSYGNSFMHWFQQRPGQSPRRLIYRASNLESGIPPRFSGSGYGTDFTLTINNIESEDAAYYFCQQSNEDLTFG
notes: as for B2
[1]
  OD 450 nm: 0.045 OD450
[2]
  OD 450 nm: 2.81 OD450
[3]
  OD 450 nm: 2.99 OD450
[4]
  OD 450 nm: 3.35 OD450
[5]
  OD 450 nm: 0.827 OD450
[6]
  OD 450 nm: 2.33 OD450
[7]
  OD 450 nm: 1.38 OD450
[8]
  OD 450 nm: 2 OD450

B5: BAP070-hum02 (antibody, IgG1, V domains shown)
VH: QVQLVQSGAEVKKPGASVKVSCKASGYTFTNYGMNWVRQARGQRLEWIGWINTYTGEPTYADDFKGRLTISKDTSKNQVVLTMTNMDPVDTATYYCTTYATSWYWGQG
VL: AIQLTQSPSSLSASVGDRVTITCRASESVDSYGNSFMHWYQQKPGKAPKLLIYRASNLESGIPARFSGSGSGTEFTLTISSLQSEDFAVYYCQQSNEDLTFG
notes: as for B2
[1]
  OD 450 nm: 0.048 OD450
[2]
  OD 450 nm: 2.77 OD450
[3]
  OD 450 nm: 2.98 OD450
[4]
  OD 450 nm: 3.31 OD450
[5]
  OD 450 nm: 0.804 OD450
[6]
  OD 450 nm: 2.32 OD450
[7]
  OD 450 nm: 1.28 OD450
[8]
  OD 450 nm: 1.85 OD450
